Assay results as given in ChEMBL document CHEMBL1221387, “Prenylflavonoids from Glycyrrhiza uralensis and their protein tyrosine phosphatase-1B inhibitory activities” (Bioorg Med Chem Lett, 2010).

Columns and labels:
[1] = substrate: COc1c(CC=C(C)C)c(O)cc(O)c1-c1oc2cc(O)ccc2c1C; details: Homo sapiens; 10 uM
Description: Competitive inhibition of human recombinant PTP1B at 10 uM by Lineweaver-Burke plot analysis

[2] = substrate: COc1c(CC=C(C)C)c(O)cc(O)c1-c1oc2cc(O)ccc2c1C; details: Homo sapiens; 20 uM
Description: Competitive inhibition of human recombinant PTP1B at 20 uM by Lineweaver-Burke plot analysis

[3] = substrate: COc1c(CC=C(C)C)c(O)cc(O)c1-c1oc2cc(O)ccc2c1C; details: Homo sapiens; 30 uM
Description: Competitive inhibition of human recombinant PTP1B at 30 uM by Lineweaver-Burke plot analysis

B1: Tyrosine-protein phosphatase non-receptor type 1 (Homo sapiens), P18031 (protein)
chain: MEMEKEFEQIDKSGSWAAIYQDIRHEASDFPCRVAKLPKNKNRNRYRDVSPFDHSRIKLHQEDNDYINASLIKMEEAQRSYILTQGPLPNTCGHFWEMVWEQKSRGVVMLNRVMEKGSLKCAQYWPQKEEKEMIFEDTNLKLTLISEDIKSYYTVRQLELENLTTQETREILHFHYTTWPDFGVPESPASFLNFLFKVRESGSLSPEHGPVVVHCSAGIGRSGTFCLADTCLLLMDKRKDPSSVDIKKVLLEMRKFRMGLIQTADQLRFSYLAVIEGAKFIMGDSSVQDQWKELSHEDLEPPPEHIPPPPRPPKRILEPHNGKCREFFPNHQWVKEETQEDKDCPIKEEKGSPLNAAPYGIESMSQDTEVRSRVVGGSLRGAQAASPAKGEPSLPEKDEDHALSYWKPFLVNMCVATVLTAGAYLCYRFLFNSNT
[1]
  Km: 3.5 µM
[2]
  Km: 4.2 µM
[3]
  Km: 5.5 µM
